# Results published in patent publication US20220340658A1 (WASHINGTON UNIVERSITY, published 2022).
# Target: SARS-CoV-1 spike protein (SARS-CoV-1, UniProt P59594 14-1190)
# Assay: ELISA, hybridoma supernatant
binder,measurement,value
"SARS2-38 (antibody, V domains shown) VH: QVQLKESGPGLVAPSQSLSITCTVSGFSLTRYGVHWVRQPPGKGLEWLGVIWADGSTYYNSALMSRLSISKDNSKSQVFLNMNSLQTDDTAKYYCARDGRGYDDYWGQGTTLTVSS VL: QIVLTQSPAIMSASPGEKVTMTCSASSTVSFIYWYQQKPGSSPRLLIYDTSNPASGVPVRFSGSGCGTSYYLTISRMEAEDAATYYCQQWNTYPLTFGAGTKLELK",binding result,no binding
